From US20180028609A1 (UCL BUSINESS, published 2018)
Where a chain is given by its changes, count along the chain named. Numbers in names are those of the source. Blank lines part the entries; values can stand above or below the binder they belong to.

How the values were obtained:
[1] = molecular target: T1, human Leucine-rich alpha-2-glycoprotein 1 (Lrg1) (human, UniProt P02750 36-347, limits assumed); test: competition ELISA: dilution series of the purified antibody against a fixed concentration of biotinylated mouse 15C4 on recombinant hLRG1; bound biotinylated 15C4 detected with streptavidin-peroxidase and TMB [bottom panel]
T1 construct: In the western blots the native protein of conditioned medium, vitreous and serum was probed; also called human Lrg1; hLrg1
T1 sequence: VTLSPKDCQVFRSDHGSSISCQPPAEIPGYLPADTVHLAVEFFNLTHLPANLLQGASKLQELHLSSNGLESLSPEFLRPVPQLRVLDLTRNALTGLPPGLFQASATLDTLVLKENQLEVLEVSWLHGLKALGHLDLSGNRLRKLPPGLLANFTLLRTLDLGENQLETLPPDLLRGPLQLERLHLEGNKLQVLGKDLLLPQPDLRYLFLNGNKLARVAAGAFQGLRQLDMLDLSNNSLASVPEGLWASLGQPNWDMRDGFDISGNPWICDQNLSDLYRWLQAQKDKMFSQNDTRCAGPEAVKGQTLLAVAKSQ
Description: Top panel-Analytical size exclusion chromatography showing single peak and no aggregates. SDS-PAGE showing reduced (lane 1) and non-reduced (lane 2) antibody. Bottom panel-Anti-hLRG1 competition ELISA. A dilution series of each purified antibody was competed against a fixed concentration of biotinylated mouse 15C4 for binding to recombinant hLRG1. Bound biotinylated mouse 15C4 was detected using streptavidin-peroxidase and TMB substrate.
The properties of Magacizumab were investigated. Analytical size exclusion chromatography was conducted showing a single peak and no aggregates (FIG. 20). An anti-hLrg1 competition ELISA was carried out. A dilution series of each purified antibody was competed against a fixed concentration of biotinylated mouse 15C4 for binding to recombinant hLrg1. Bound biotinylated mouse 15C4 was detected using streptavidin-peroxidase and TMB substrate. This was an analytical step in which several humanised variants were tested against the chimeric 15C4, in order to identify those that retained the best binding characteristics.

[2] = molecular target: T1, human Leucine-rich alpha-2-glycoprotein …; test: competition ELISA on coated hLrg1; competitor biotinylated mouse 15C4 at 0.4 µg/ml
[3] = molecular target: T1, human Leucine-rich alpha-2-glycoprotein …; test: competition ELISA: plate coated with hLrg1, dilution series of the test antibody premixed with biotinylated mouse 15C4 (0.4 µg/ml); bound biotinylated 15C4 detected with streptavidin-HRP and TMB [top graph]
Method: (§1) The chimeric antibody was expressed transiently in HEK EBNA cells and stably in NS0 mouse myeloma cells, purified and tested for binding to human Lrg1 in a competition ELISA assay. A Nunc Immuno MaxiSorp 96 well flat bottom microtitre plate (Fisher, cat. no. DIS-971-030J) was pre-coated with 0.2 μg/ml hLrg1 (supplied by UCL) overnight in 0.1 N Sodium Carbonate buffer (NaHCO₃) at +4° C. The following day the plate was washed 1× with PBST and blocked with 3% BSA/PBS for 1 hour at room temperature. After washing 3× with PB ST, a three-fold dilution series of chimeric, mouse or control antibodies from 100 μg/ml to 0.13 μg/ml was premixed with a constant concentration of biotinylated mouse 15C4 (0.4 μg/ml, final concentration), added to the plates and incubated for 1.5 hours at room temperature. Following 3×PBST washes, the binding of the biotinylated mAb was detected with streptavidin-HRP (Sigma, cat. no. 55512) and TMB substrate (Invitrogen, cat. no. 00-2023). The reaction was stopped with 3 M HCl, absorbance read at 450 nm on a Dynex Technologies MRX TC II plate reader and the binding curves plotted.

[4] = molecular target: T1, human Leucine-rich alpha-2-glycoprotein …; test: competition ELISA: plate coated with hLrg1, dilution series of the test antibody premixed with biotinylated mouse 15C4 (0.4 µg/ml); bound biotinylated 15C4 detected with streptavidin-HRP and TMB [bottom graph]
Method: as §1

[5] = molecular target: T1, human Leucine-rich alpha-2-glycoprotein …; test: Biacore SPR; human Lrg1 immobilised, mAb at 20-100 nM
Method: The four lead mAbs were examined using Biacore, in experiments in which human Lrg1 was immobilized on the chip, and mAbs passed across at concentrations ranging from 20-100 nM. The Table below summarises the kinetic data.

[6] = molecular target: T2, Lrg1 peptide GNKLQVLGKDLLLPQ (amino acids 221-235 of Lrg1) (human); test: ProArray Ultra peptide microarray, fluorescent secondary antibody
T2 construct: Synthetic 15-mer of the overlapping library
T2 peptide: GNKLQVLGKDLLLPQ
Method: The determination of peptide-antibody binding was performed by incubation of serum or antibody samples with a ProArray Ultra® peptide microarray, followed by incubation with a fluorescent-labelled secondary antibody.
ProArray Ultra® slides were blocked using a validated blocking buffer to reduce non-specific binding of the sera. They were then incubated with test samples, followed by incubation with a specific fluorescent-labelled secondary antibody. After several washing steps, the ProArray Ultra® arrays were dried and scanned using a high-resolution fluorescence microarray scanning system.
Overlapping peptides representing LRG1 were synthesized and printed onto ProArray Ultra® microarray slides, alongside selected murine IgG controls. Slides were incubated with murine monoclonal antibody samples 4H2, 15C4 and 3A11 to identify putative epitopes. An overlapping peptide library representing Lrg1 was synthesized from the sequence provided by the sponsor. 15-mer synthetic peptides, overlapping by 10 amino acids, were generated.

B1: Magacizumab (humanised 15C4 antibody comprising heavy chain variable region VH5 and kappa light chain variable region VK3) (antibody, V domains shown)
VH: QVQLVQSGAEVKKPGSSVKVSCKASGYTFSGYWMNWVRQAPGQGLEWIGQIYPGDGDTNYNGKFKGRVTITADKSTSTAYMELSSLRSEDTAVYYCARSITTVVLDYWGQGTTVTVSS
VL: DIVLTQSPDSLAVSLGERATISCRASQSVSTSGYSFMHWYQQKPGQPPKLLIKYASNLESGVPARFSGSGSGTDFTLTISSLQPEDFATYYCQHSWEMPLTFGQGTKLEIK
notes: also called VH5/Vk3_3B6 clone; humanised antibody
binding result [1]: binds

B3: Antibody 15C4 (mouse monoclonal antibody against human Lrg1) (antibody, V domains shown)
VH: QVQLQQSGDEVVRPGSSVKISCKASGYTFSGYWMNWVKQRPGQGLQWIGQIYPGDGDTNYNGKFKGKATLTADKSSSTAYMQLSTLTSEDSAIYFCARSITTVVLDYWGQGTTLTVSS
VL: DIVLTQSPVSLAVSLGQRATISCRASQSVSTSGYSFMHWYQQKPGQPPKFLIKYASNLESGVPARFSGSGSGTDFTLNIHPVEEEDTATYYCQHSWEMPLTFGAGTKLELK
notes: Murine hybridoma antibody; also called mouse 15C4; mAb 15C4
Kd [5]: 1.27 pM
binding result [6]: binds
IC50 (read off the curve) [3]: ~5 µg/mL
IC50 (read off the curve) [4]: ~3 µg/mL

The next lines start with the values.

IC50 fold difference against mouse 15C4 [2]: ≤ 2 fold
IC50 (read off the curve) [3]: ~6 µg/mL
IC50 (read off the curve) [4]: ~3 µg/mL
B2: chimeric 15C4 antibody (murine 15C4 variable regions with human IgG4 (S241P) heavy chain constant region and Kappa light chain constant region) (antibody, V domains shown)
VH: B3 VH
VL: B3 VL
notes: Human IgG4 (S241P) heavy chain constant region and human Kappa light chain constant region; Expressed transiently in HEK EBNA cells and stably in NS0 cells; also called chimeric antibody; VH0/Vk0

IC50 fold difference against mouse 15C4 [2]: ≤ 2 fold
B4: control antibody VH0/Vk1 (antibody, V domains shown)
VH: B3 VH
VL: B1 VL with L50F, P84E

IC50 fold difference against mouse 15C4 [2]: ≤ 2 fold
B5: control antibody VH1/Vk0 (antibody, V domains shown)
VH: B3 VH with Q5V, V12K, R13K, I20V, R40A, K67R, L70I, S76T, L114V
VL: B3 VL
